From patent US20240360214A1 (Pfizer, published 2024)

What was measured:
[1] = target: T1, LILRB2 expressed on THP1 cells (human, UniProt Q8N423 22-597); experiment: flow cytometry competition with PE HLA-G tetramer on THP1-LILRB2 cells; upper end of the printed range 1.7-6 nM
T1 construct: whole, on cells; also called THP1 LILRB2 expressing cells; THP1-LILRB2 cells
Description: (§1) LILRB1 or LILRB2 overexpressing THP1 cells were prepared in FACS buffer (0.5% BSA in PBS) and seeded in 100 μl/well (96 well plate) at 1λ10⁶ cells/ml concentration. The tested antibodies were serially diluted 3-fold into assay buffer starting from 200 nM. 40 μl of serial diluted antibody together with 40 μl of PE labelled HLA-G tetramer (FRED HUTCH IMT40509) at 2 ug/ml were added to each well and incubated on ice for 1 hour. The cells were washed 2 times with FACS buffer and resuspended in 50 μl/well FACS buffer containing 1:1000 dilution of LIVE/Dead fixable violet dead cell stain (Invitrogen #L34964), incubated on ice for 15 minutes. The cells were then washed with FACS buffer for 2 times and resuspended in 80 μl of Cytofix buffer (BD Cat #554655).

[2] = target: T1, LILRB2 expressed on THP1 cells; experiment: flow cytometry competition with PE HLA-G tetramer on THP1-LILRB2 cells; lower end of the printed range 1.7-6 nM
Description: as §1

[3] = target: T2, human LILRB2 (huLILRB2), purified recombinant protein (human, UniProt Q8N423 22-458, limits assumed); experiment: SPR (Biacore 8K, 37 C), antibody captured by anti-human Fc, huLILRB2 as analyte, 1:1 fit
T2 construct: Bought protein, used as the SPR analyte and as the ELISA coat; also called huLILIB2
T2 sequence (Q8N423 22-458 limits assumed): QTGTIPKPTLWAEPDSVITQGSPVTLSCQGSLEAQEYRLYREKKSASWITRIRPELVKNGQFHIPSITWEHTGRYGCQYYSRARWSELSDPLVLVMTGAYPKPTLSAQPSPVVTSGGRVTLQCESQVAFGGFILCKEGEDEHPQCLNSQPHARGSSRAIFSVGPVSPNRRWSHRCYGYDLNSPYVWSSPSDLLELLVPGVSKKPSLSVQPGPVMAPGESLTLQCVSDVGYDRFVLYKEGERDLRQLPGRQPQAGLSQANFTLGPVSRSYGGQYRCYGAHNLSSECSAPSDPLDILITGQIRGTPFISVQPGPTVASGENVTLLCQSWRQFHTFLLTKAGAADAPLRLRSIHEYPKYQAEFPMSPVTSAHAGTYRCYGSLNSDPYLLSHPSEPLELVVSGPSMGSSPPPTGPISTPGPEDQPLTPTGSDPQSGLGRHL
Description: Biacore kinetic assays were conducted at 37° C. with a collection rate of 10 Hz using the Biacore 8K and 8K+ instruments (Cytiva). […] The final capture levels of the antibodies ranged from 20 resonance units (RU) to 60 RU. HBS-EP+pH 7.4 (10 mM HEPES pH 7.4, 150 mM NaCl, 3 mM EDTA, 0.05% Tween 20) was used as sample and running buffer. Flow cell 1 was used as a reference flow cell. Two-fold serial dilutions of human LILRB2 or LILRB1 (R&D Systems, Catalog number: 8429-T4) were prepared with concentrations from 45 nM to 1.667 nM for LILRB2; 405 nM to […] for LILRB1. Dilutions were prepared in duplicate and injected over all flow cells for 60 s at flow rate of 50 μl per minute. Dissociation was monitored for 600 s and the surface was regenerated with two 30 s injections of 3M MgCl₂ at flow rate of 50 μl per minute. The resulting data was double referenced (Myszka, D. G. Improving biosensor analysis. J. Mol. Recognit. 12:279-284; (1999). Rate constants and affinities were determined by fitting the sensorgram data to a Langmuir 1:1 model using Biacore Insight Evaluation software version 3.0.12 (Cytiva).

huLILRA1 = huLILRA1 (human, UniProt O75019 17-461, limits assumed); experiment: SPR (Biacore), antibody captured
Sequence of huLILRA1 (O75019 17-461 limits assumed): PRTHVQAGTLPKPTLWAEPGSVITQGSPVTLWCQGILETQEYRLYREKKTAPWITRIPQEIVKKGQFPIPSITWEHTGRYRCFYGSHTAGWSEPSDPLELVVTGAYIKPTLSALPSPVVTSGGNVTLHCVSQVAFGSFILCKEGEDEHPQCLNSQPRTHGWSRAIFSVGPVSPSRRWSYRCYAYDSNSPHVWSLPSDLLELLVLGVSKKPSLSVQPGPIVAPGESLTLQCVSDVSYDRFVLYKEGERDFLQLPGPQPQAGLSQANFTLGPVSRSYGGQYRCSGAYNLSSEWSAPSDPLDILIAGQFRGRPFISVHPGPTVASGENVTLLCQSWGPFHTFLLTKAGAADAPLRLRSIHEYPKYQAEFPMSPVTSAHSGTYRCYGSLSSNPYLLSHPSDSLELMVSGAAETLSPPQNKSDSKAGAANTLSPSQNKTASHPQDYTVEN

huLILRA2 = huLILRA2 (human, UniProt Q8N149 24-449, limits assumed); experiment: SPR (Biacore), antibody captured
Sequence of huLILRA2 (Q8N149 24-449 limits assumed): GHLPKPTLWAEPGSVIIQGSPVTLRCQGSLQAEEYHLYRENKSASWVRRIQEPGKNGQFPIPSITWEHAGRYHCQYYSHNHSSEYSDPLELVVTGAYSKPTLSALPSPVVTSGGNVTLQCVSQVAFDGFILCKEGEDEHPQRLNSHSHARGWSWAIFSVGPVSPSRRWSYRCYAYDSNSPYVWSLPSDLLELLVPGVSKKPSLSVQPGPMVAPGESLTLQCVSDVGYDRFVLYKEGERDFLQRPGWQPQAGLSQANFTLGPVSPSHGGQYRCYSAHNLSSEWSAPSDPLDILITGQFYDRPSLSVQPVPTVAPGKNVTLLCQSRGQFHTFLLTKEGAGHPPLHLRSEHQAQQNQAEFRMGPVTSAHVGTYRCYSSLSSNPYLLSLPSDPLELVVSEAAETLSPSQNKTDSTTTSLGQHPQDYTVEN

huLILRA5 = huLILRA5 (human, UniProt A6NI73 42-268, limits assumed); experiment: SPR (Biacore), antibody captured
Sequence of huLILRA5 (A6NI73 42-268 limits assumed): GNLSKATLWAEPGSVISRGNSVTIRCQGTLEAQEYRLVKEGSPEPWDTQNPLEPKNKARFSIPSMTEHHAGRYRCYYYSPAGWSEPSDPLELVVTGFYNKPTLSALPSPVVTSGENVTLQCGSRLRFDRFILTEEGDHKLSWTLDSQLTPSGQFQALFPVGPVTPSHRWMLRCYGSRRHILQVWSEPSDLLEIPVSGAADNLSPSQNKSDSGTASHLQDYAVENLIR

[4] = target: T1, LILRB2 expressed on THP1 cells; experiment: flow cytometry competition with PE HLA-G tetramer on THP1-LILRB2 cells (THPB2)
Description: as §1

T1 sequence (Q8N423 22-597): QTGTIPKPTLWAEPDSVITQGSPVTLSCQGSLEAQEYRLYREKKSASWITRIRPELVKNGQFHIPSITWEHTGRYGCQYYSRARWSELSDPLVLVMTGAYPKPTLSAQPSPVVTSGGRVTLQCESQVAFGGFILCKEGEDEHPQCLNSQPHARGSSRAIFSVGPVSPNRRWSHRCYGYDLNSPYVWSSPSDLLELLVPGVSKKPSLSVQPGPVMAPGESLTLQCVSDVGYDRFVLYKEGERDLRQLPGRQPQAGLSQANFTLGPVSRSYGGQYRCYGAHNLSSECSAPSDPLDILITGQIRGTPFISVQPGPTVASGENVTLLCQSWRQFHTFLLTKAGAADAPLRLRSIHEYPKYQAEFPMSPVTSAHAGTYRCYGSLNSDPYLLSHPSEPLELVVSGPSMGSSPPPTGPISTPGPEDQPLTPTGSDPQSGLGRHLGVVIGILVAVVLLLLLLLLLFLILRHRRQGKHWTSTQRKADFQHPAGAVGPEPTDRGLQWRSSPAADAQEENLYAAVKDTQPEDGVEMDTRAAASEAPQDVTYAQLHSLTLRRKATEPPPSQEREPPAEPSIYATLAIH

- IC50 [1]: ≤ 6 nM
- IC50 [2]: ≥ 1.7 nM
- Kd [3]: 0.59 nM
- koff [3]: 0.000276 s⁻¹
- kon [3]: 810000 M⁻¹ s⁻¹
- t½ [3]: 54.2 min
- binding result (huLILRA1): no binding
- binding result (huLILRA2): no binding
- binding result (huLILRA5): no binding
- EC50 [4]: 3.43 nM
B1: anti-LILRB2 antibody Ab-B2-1825 (antibody, human IgG1, lambda, V domains shown)
VH: EVQLLESGGGLVQPGGSLRLSCAASGFTFSSYAMSWVRQAPGKGLEWVSAISGSGGSTYYADSVKGRFTISRDNSKNTLYLQMNSLRAEDTAVYYCWRWLNLGDAFDIWGQGTMVTVSS
VL: QSVLTQPPSASGTPGQRVTISCTGSSSNIGSNTVNWYQQLPGTAPKLLIYSDNQRPSGVPDRFSGSTSGTSASLAISGLRSEDEADYFCATWEDVLAGYVVFGGGTKLTVLG
